Experimental data: PMC3590194

Test system: bivalirudin (Angiomax), TMR-labeled (synthetic)
Test: fluorescence anisotropy
Settings: 5 mM Mg2+?; BB = PBS (no MgCl2/CaCl2) with 5 mM MgCl2 (flow cytometry, 1 h incubation; FA buffer not stated in the material); pH and binding temperature not stated

| Sequence | Kd [µM] |
| --- | --- |
| ATCGTCTGCTCCGTCCAATATATTGTGTGACCCCCCTCTTGTTTTGGTGTGAGGTCGTGC [JPB5] | 5.76 |
| ATCGTCTGCTCCGTCCAATACGTAACATCCCCGTAATACTACTACGGTCGTGCTGGTTTGGTGTGAGGTCGTGC [JPB2] | 5.99 |
